Reference: patent US20180282403A1, “AGENTS FOR REDUCING THE ACTIVITY OF GDF15” (GENAGON THERAPEUTICS AB, priority 2015, published 2018)

Tests used:
Type in all cases: cell-based
SMAD2 = test: Detection of phosphorylated SMAD2 in NK-92 cells; settings: GDF15 40 min
Method: GDF15 has been reported in the literature to mediate downstream signalling resembling both the canonical (SMAD) pathway mediated by ALK5(TGFBRI) kinase domain, and non-canonical TGFβ receptor signalling, such as phosphorylation of GSK3b. In order to investigate if CLPTM1 was involved in this we developed a set of in situ PLA assays to determine the dynamics between CLPTM1 and the TGFβ receptors and components downstream of the TGFβ receptors. NK-92 cells were treated with GDF15 for 40 min to detect phosphorylated SMAD proteins such as SMAD2 in the nucleus. […] From previous experiments with TGFB1 stimulation we know that the assay (pSMAD2) was functional.

QRFPR [1] = test: In situ PLA detection of RAB11-QRFPR double positive endosomes in MCF7 cells; settings: GDF15 stimulation alone; FIG. 5
Description: The RAB11 protein is a marker for recycling endosomes back to the cell surface, and the RAB11 pathway is also involved in exosome assembly (Savina et al., 2005; Savina et al., 2002). RAB11 was thus thought to be a likely candidate to be involved in QRFPR reduction on the cell surface induced by GDF15
An in situ PLA assay was developed to detect the proximity of RAB11 and QRFPR. In the absence of GDF15, only a low signal is observed (FIGS. 5A and 5C).
We choose to use this assay as a way to investigate if the activity of GDF15 could be inhibited by various agents. […] GDF15-induced formation of RAB11/QRFPR endosomes is inhibited by QRFPR peptides (FIG. 9A-D). Equal amounts of a mastermix of GDF15 was aliquoted and pre-incubated in PBS with the various receptor fragment before addition to cells. Sequentially, the cells were treated with either PBS, GDF15 or GDF15/QRFPR-derived peptide mixes.

CLPTM1 [2] = biological target: T1, CLPTM1 (Homo sapiens, UniProt O96005); test: Detection of NKG2D in NK-92 cells after extended GDF15 stimulation; settings: overnight GDF15 stimulation, FIG. 21A
T1 construct: endogenous in cells; host or cells: NK-92 cells
T1 sequence (O96005 1-669): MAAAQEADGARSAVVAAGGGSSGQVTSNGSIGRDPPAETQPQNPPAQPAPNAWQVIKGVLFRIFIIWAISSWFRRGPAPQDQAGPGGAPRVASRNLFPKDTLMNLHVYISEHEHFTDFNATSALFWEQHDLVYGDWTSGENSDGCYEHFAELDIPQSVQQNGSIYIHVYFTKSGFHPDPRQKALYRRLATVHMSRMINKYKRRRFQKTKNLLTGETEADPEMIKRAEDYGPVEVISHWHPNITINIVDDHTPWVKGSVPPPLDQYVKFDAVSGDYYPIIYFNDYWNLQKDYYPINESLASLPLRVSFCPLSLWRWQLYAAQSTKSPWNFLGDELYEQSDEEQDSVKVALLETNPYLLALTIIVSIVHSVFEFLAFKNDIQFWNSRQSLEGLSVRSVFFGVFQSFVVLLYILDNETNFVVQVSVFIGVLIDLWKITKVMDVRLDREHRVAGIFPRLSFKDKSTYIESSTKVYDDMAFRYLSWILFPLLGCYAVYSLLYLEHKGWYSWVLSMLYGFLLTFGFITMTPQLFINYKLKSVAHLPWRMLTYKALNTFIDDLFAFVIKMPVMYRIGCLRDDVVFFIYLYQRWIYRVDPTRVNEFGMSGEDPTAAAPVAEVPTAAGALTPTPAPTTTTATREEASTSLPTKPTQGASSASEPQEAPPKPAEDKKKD
Description: Based upon literature, the expression of CLPTM1 in immune cells such as CD8+T-lymphocytes and NK-92 cells, and the GDF15 induced proximity of CLPTM1 to TGFBRI-TGFBRII (through which TGFB1 signals), we investigated whether blockade of CLPTM1 by antibodies could affect the levels of the immune effector NKG2D in NK-92 cells that had been subjected to extended stimulation with GDF15. […] The decrease in NKG2D was reversed in NK-92 cells that had been pre-treated with a binding agent capable of binding to CLPTM1 (an antibody) prior to GDF15 stimulation (FIG. 21B). […] We propose that this may increase their cytotoxicity.

CLPTM1 [3] = biological target: T1, CLPTM1; test: Detection of phosphorylated GSK3b (9/21) in NK-92 cells (in situ PLA, Western blot); settings: GDF15 in the presence of control antibody, FIG. 16
Method: A-C) In situ PLA detection of phosphorylated GSK3b (GSK3b-p(9/21) using a pair of proximity probes A) Negative control cells with no added GDF15. B) Cells after exposure to GDF15 and control antibody. C) Cells after exposure to GDF15 following pre-incubation with a monoclonal antibody targeting the extracellular domain of CLPTM1 D) Western Blot indicating the levels of phosphorylated GSKb (p-GSKb). Lane 1—No GDF15. Lane 2—GDF15 stim+ ctrl ab. Lane 3 GDF15 stim+ mAb mouse (antibody used in in situ PLA experiment).
The effect of antibodies binding CLPTM1 on inhibiting GDF15 induced downstream signalling through the TGFB heterotetrameric complex was assessed by detecting phosphorylated GSK3b-pGSK3b(9/21) in an in situ PLA assay. Phosphorylation of GSK3b is known to cause immunosuppressive effects i.e. suppress immune cell function.

QRFPR [4] = biological target: T2, QRFPR (Homo sapiens, UniProt Q96P65); test: In situ PLA detection of EEA1-QRFPR proximity; settings: GDF15 5 min; FIG. 3C-D
T2 construct: endogenous in cells
T2 sequence (Q96P65 1-431): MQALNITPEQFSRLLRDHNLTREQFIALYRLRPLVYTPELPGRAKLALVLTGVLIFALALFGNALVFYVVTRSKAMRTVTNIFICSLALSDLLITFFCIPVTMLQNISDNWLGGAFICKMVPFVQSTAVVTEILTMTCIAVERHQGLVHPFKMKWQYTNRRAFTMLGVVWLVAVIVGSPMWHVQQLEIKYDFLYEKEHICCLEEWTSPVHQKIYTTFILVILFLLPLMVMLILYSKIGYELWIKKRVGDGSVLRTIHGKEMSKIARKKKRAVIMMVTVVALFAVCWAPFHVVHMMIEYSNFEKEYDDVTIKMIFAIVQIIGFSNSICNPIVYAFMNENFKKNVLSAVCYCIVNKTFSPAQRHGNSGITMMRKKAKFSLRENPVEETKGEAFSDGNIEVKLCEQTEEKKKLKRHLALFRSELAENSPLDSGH
Description: […] (EEA1) is a marker for rapid endosome formation, and an assay was developed to detect the proximity of EEA1 and QRFPR. In the absence of GDF15, no signal was obtained (FIG. 3C).

levels of detectable NKG2D (CLPTM1 [2]): low levels of detectable NKG2D
9/21 phosphorylation of GSK3b (CLPTM1 [3]): induces 9/21 phosphorylation of GSK3b
EEA1-QRFPR proximity (RCA products) (QRFPR [4]): increase the number of RCA products
Substance: GDF15: Growth and differentiation factor 15, from mammalian source or recombinant from E. coli (Abcam, Biovision)
c-terminal phosphorylated SMAD 2 (SMAD2): failed to detect c-terminal phosphorylated SMAD 2
RAB11-QRFPR double positive endosomes (QRFPR [1]): rapid detection of RAB11-QRFPR double positive endosomes
